Assay results as given in ChEMBL document CHEMBL2074562, “Substrate specificity of the rat liver Na(+)-bile salt cotransporter in Xenopus laevis oocytes and in CHO cells” (Am J Physiol, 1998).

Legend:
Format in all cases: functional, cell-based
[1] = substrate: C[C@]12CC[C@@H]3c4ccc(OS(=O)(=O)O)cc4CC[C@H]3[C@@H]1CCC2=O; assay: (§1) TP_TRANSPORTER: uptake in Ntcp-expressing CHO cells
[2] = substrate: C[C@H](CCC(=O)NCC(=O)O)[C@H]1CC[C@H]2[C@@H]3[C@H](O)C[C@@H]4C[C@H](O)CC[C@]4(C)[C@H]3C[C@H](O)[C@]12C; assay: as §1
[3] = substrate: C[C@H](CCC(=O)NCCS(=O)(=O)O)[C@H]1CC[C@H]2[C@@H]3[C@H](O)C[C@@H]4C[C@H](O)CC[C@]4(C)[C@H]3CC[C@]12C; assay: as §1

B1: Hepatic sodium/bile acid cotransporter (Rattus norvegicus) (protein)
chain: MEVHNVSAPFNFSLPPGFGHRATDKALSIILVLMLLLIMLSLGCTMEFSKIKAHLWKPKGVIVALVAQFGIMPLAAFLLGKIFHLSNIEALAILICGCSPGGNLSNLFTLAMKGDMNLSIVMTTCSSFSALGMMPLLLYVYSKGIYDGDLKDKVPYKGIMISLVIVLIPCTIGIVLKSKRPHYVPYILKGGMIITFLLSVAVTALSVINVGNSIMFVMTPHLLATSSLMPFSGFLMGYILSALFQLNPSCRRTISMETGFQNIQLCSTILNVTFPPEVIGPLFFFPLLYMIFQLAEGLLIIIIFRCYEKIKPPKDQTKITYKAAATEDATPAALEKGTHNGNIPPLQPGPSPNGLNSGQMAN
Km [1]: 27 µM
Km [2]: 27 µM
Km [3]: 5 µM
